Assay [1] concerns the target human α-CGRP fragment 25-37 (human). Kind of assay: Biacore SPR, 25 °C, Fab flowed over biotinylated peptide on SA chip; mean ± SD of two measurements. A general note: In SPR one partner is held on a chip, and binding of the other changes the refractive index at the surface.
Assay [2] concerns the target human α-CGRP fragment 19-37 (human). Described as above.
Assay [3] concerns the target human α-CGRP V28A (25-37) (human). The experiment in a line: Biacore SPR, 25 °C, Fab over peptide on chip; KD ratio to parent 25-37.
The target of assay [4] is human α-CGRP S34A (25-37) (human). Described as above.
In assay [5] the target is human α-CGRP F27A (25-37) (human). The assay is described as above.
The target of assay [6] is human α-CGRP G33A (25-37) (human). Described as above.
The target of assay [7] is human α-CGRP N31A (25-37) (human). Described as above.
Assay [8] addresses human α-CGRP P29A (25-37) (human). The description is as above.
Assay [9] has as its target human α-CGRP T30A (25-37) (human). The description is as above.
For assay [10], the target named is human α-CGRP V32A (25-37) (human). The assay is described as above.
In assay [11] the target is human α-CGRP F37A (25-37) (human). The description is as above.
The target in assay [12] is human α-CGRP 1-37 (WT) (human). The experiment in a line: Biacore 37°C, Fab over biotinylated CGRP on SA chip.
human α-CGRP 1-37 (WT) (human), sequence (peptide, as listed by the source): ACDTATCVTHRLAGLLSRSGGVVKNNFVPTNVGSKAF
The next assay concerns the target rat α-CGRP (1-37) (rat). The assay is described as above.
Assay [13] has as its target human α-CGRP 1-37 (WT) (human). Kind of assay: Biacore 25°C, Fab over biotinylated CGRP on SA chip.
For assay [14], the target named is human α-CGRP K35A (19-37) (human). The experiment in a line: Biacore SPR, 25 °C, Fab over peptide on chip; KD ratio to parent 19-37.

rat α-CGRP (1-37) (rat), sequence (peptide, as listed by the source): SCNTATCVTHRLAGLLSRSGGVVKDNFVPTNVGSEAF

On to “murine anti-CGRP monoclonal antibody 7E9, Fab fragment”, for which the dissociation constant Kd came out at 0.14 nM in [1]; 1.1 nM in assay [2]; 0.9 nM in assay [12]; 47 nM with rat α-CGRP (1-37) (rat); 1 nM in [13]. In addition, the KD(mutant/parent) amounted to 1 in [3]; 69 in assay [4]; 1 in assay [5]; 1260 in [6]; 9 in assay [7]; 26 in assay [8]. The KD(mutant/parent) in assay [9] was 7; in assay [10], 41; in assay [11], 3600; in assay [14] it was 4.

As usually defined, the Kd is the free concentration of one partner at which half of the binding sites on the other are occupied at equilibrium, for simple one-to-one binding. A low value points to tighter binding.

The values above are taken from US20230303674A1.
